Test results as given in publication PMC4223078.
Positions count from the first letter of the chain named.

Key:
Assay in all cases: EMSA
Conditions in all cases: 10 nM DNA in 15 mM HEPES pH 7.9, 40 mM KCl, 1 mM EDTA, 0.5% DTT, 5% glycerol, 30 min (incubation temperature not stated); 6% native PAGE in TAE at 4 C, SYBR …
[1] = target: T1, StpA WT (Salmonella enterica serovar Typhimurium 14028s) (UniProt A0A0F6B5K2)
T1 sequence: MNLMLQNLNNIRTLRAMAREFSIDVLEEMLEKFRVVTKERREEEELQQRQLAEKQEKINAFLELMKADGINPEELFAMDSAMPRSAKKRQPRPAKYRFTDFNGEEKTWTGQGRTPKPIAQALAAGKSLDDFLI

[2] = target: T2, StpA A77D A77D (Salmonella enterica serovar Typhimurium 14028s) (UniProt A0A0F6B5K2)
T2 sequence: T1 sequence with A77D

[3] = target: T3, StpA T37I T37I (Salmonella enterica serovar Typhimurium 14028s) (UniProt A0A0F6B5K2)
T3 sequence: T1 sequence with T37I

[4] = target: T4, H-NS (6His) (Salmonella enterica serovar Typhimurium 14028s?) (UniProt A0A0F6B244)
T4 sequence: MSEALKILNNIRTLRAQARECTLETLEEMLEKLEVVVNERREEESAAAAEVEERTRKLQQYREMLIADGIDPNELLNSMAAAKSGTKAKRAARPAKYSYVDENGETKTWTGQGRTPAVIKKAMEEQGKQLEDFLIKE

[5] = target: T5, StpA M4T M4T (Salmonella enterica serovar Typhimurium 14028s) (UniProt A0A0F6B5K2)
T5 sequence: T1 sequence with M4T

Measured: binding

CTCTCTCTGCACCAGGATATACGGCAGCGTCCATTCGATAATCACAGTTAGTTATAACAATATTATTACCAACATGTCAGTTATTTAAAGCACAGGCATAAGCTAAATAATCAAATGTTAAAAACATATAAACCCGAGCCCGTAGAATATGACATTAAGCTCATAATAAAAGCTCAACCTGACCGTTAGTACTAACAGCAGAATTACTGAAACAGTAGATTCTATCCTAACGACTTGTATTAGTTATTATAACTTTTCACCCTGTAAGAGAATACACTATTATCATGCC (double strand) [hilA 289 bp fragment]
binds: [1] | [2] | [3] | [4] | [5]
